Results published in publication PMC6980676 (Molecular cell, 2019).

Columns and labels:
Vts1-SNAP (full length) [1] = target: T1, Vts1-SNAP (full length) (UniProt Q08831 1-523); assay: fluorescence microscopy co-localization
T1 sequence: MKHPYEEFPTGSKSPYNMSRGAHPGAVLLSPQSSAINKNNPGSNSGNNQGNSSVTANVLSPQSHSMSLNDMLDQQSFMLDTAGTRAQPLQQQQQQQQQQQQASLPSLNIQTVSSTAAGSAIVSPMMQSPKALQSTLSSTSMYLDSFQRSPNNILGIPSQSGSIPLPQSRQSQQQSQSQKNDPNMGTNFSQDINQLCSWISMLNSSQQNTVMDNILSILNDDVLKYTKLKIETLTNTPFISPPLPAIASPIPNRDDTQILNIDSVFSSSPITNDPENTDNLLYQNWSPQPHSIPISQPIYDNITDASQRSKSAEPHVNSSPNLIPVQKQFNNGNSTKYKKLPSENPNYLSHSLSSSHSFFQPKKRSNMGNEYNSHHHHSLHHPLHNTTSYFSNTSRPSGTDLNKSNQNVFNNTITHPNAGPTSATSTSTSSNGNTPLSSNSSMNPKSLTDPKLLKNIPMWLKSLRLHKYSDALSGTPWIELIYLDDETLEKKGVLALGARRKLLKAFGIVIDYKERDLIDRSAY

SEC = target: the molecule itself; assay: SEC
native gel or EMSA = target: the molecule itself; assay: native gel or EMSA
Vts1-SNAP (full length) [2] = target: T1, Vts1-SNAP (full length); assay: fluorescence microscopy co-localization; remark: listed apart in the source

UAAUAAUCAGCUGGCCUGAUUAGUC (structured_RNA) [SRE+ RNA]: binds (Vts1-SNAP (full length) [1]).

B1: full-length Vts1 with a C-terminal SNAP tag (natural protein, S. cerevisiae, UniProt Q08831 1-523, looked up)
chain: MKHPYEEFPTGSKSPYNMSRGAHPGAVLLSPQSSAINKNNPGSNSGNNQGNSSVTANVLSPQSHSMSLNDMLDQQSFMLDTAGTRAQPLQQQQQQQQQQQQASLPSLNIQTVSSTAAGSAIVSPMMQSPKALQSTLSSTSMYLDSFQRSPNNILGIPSQSGSIPLPQSRQSQQQSQSQKNDPNMGTNFSQDINQLCSWISMLNSSQQNTVMDNILSILNDDVLKYTKLKIETLTNTPFISPPLPAIASPIPNRDDTQILNIDSVFSSSPITNDPENTDNLLYQNWSPQPHSIPISQPIYDNITDASQRSKSAEPHVNSSPNLIPVQKQFNNGNSTKYKKLPSENPNYLSHSLSSSHSFFQPKKRSNMGNEYNSHHHHSLHHPLHNTTSYFSNTSRPSGTDLNKSNQNVFNNTITHPNAGPTSATSTSTSSNGNTPLSSNSSMNPKSLTDPKLLKNIPMWLKSLRLHKYSDALSGTPWIELIYLDDETLEKKGVLALGARRKLLKAFGIVIDYKERDLIDRSAY
With B1 the “stoichiometry N” value (SEC) was 6.

B2: SNAP^549 labeled full-length Vts1 (natural protein, S. cerevisiae, UniProt Q08831 1-523, looked up)
chain: MKHPYEEFPTGSKSPYNMSRGAHPGAVLLSPQSSAINKNNPGSNSGNNQGNSSVTANVLSPQSHSMSLNDMLDQQSFMLDTAGTRAQPLQQQQQQQQQQQQASLPSLNIQTVSSTAAGSAIVSPMMQSPKALQSTLSSTSMYLDSFQRSPNNILGIPSQSGSIPLPQSRQSQQQSQSQKNDPNMGTNFSQDINQLCSWISMLNSSQQNTVMDNILSILNDDVLKYTKLKIETLTNTPFISPPLPAIASPIPNRDDTQILNIDSVFSSSPITNDPENTDNLLYQNWSPQPHSIPISQPIYDNITDASQRSKSAEPHVNSSPNLIPVQKQFNNGNSTKYKKLPSENPNYLSHSLSSSHSFFQPKKRSNMGNEYNSHHHHSLHHPLHNTTSYFSNTSRPSGTDLNKSNQNVFNNTITHPNAGPTSATSTSTSSNGNTPLSSNSSMNPKSLTDPKLLKNIPMWLKSLRLHKYSDALSGTPWIELIYLDDETLEKKGVLALGARRKLLKAFGIVIDYKERDLIDRSAY
modifications: SNAP-Surface 549 dye on the SNAP tag
B2: binds (native gel or EMSA).

With UAAUAAUCAGGUCGCCUGAUUAGUC (structured_RNA) [SRE- RNA (permuted SRE)] the binding signal (Vts1-SNAP (full length) [2]) was > 5 fold lower co-localized signal than SRE+.
